These results are taken from patent US20180273622A1 (published 2018).

Positions count from the first letter of the chain named.

B1: Fc DRA222 (TSC311 or TSC312) (Fc fusion)
chain: EPKSSDKTHTCPPCPAPEAAGAPSVFLFPPKPKDTLMISRTPEVTCVVVDVSHEDPEVKFNWYVDGVEVHNAKTKPREEQYNSTYRVVSVLTVLHQDWLNGKAYACAVSNKALPAPIEKTISKAKGQPREPQVYTLPPSRDELTKNQVSLTCLVKGFYPSDIAVEWESNGQPENNYKTTPPVLDSDGSFFLYSKLTVDKSRWQQGNVFSCSVMHEALHNHYTQKSLSLSPGQRHNNSSLNTGTQMAGHSPNSQVQLVESGGGVVQPGRSLRLSCKASGYTFTRSTMHWVRQAPGQGLEWIGYINPSSAYTNYNQKFKDRFTISADKSKSTAFLQMDSLRPEDTGVYFCARPQVHYDYNGFPYWGQGTPVTVSSGGGGSGGGGSGGGGSAQDIQMTQSPSSLSASVGDRVTMTCSASSSVSYMNWYQQKPGKAPKRWIYDSSKLASGVPARFSGSGSGTDYTLTISSLQPEDFATYYCQQWSRNPPTFGGGTKLQITSSS
B2: Fc H8L1 (TSC316) (Fc fusion)
chain: EPKSSDKTHTCPPCPAPEAAGAPSVFLFPPKPKDTLMISRTPEVTCVVVDVSHEDPEVKFNWYVDGVEVHNAKTKPREEQYNSTYRVVSVLTVLHQDWLNGKAYACAVSNKALPAPIEKTISKAKGQPREPQVYTLPPSRDELTKNQVSLTCLVKGFYPSDIAVEWESNGQPENNYKTTPPVLDSDGSFFLYSKLTVDKSRWQQGNVFSCSVMHEALHNHYTQKSLSLSPGQRHNNSSLNTGTQMAGHSPNSQVQLVQSGAEVKKPGASVKVSCKASGYTFTRSTMHWVRQAPGQGLEWMGYINPSSAYTNYNQKFKDRVTMTRDTSTSTVYMELSSLRSEDTAVYYCARPQVHYDYNGFPYWGQGTLVTVSSGGGGSGGGGSGGGGSGGGGSDIQMTQSPSSLSASVGDRVTMTCSASSSVSYMNWYQQKPGKAPKRWIYDSSKLASGVPARFSGSGSGTDYTLTISSLQPEDFATYYCQQWSRNPPTFGGGTKLQITSSS
B3: Fc H7L1 (TSC313) (Fc fusion)
chain: B2 chain with T328I, V331A, S337R, E341D

In the test the target is human CD3 (human, UniProt P07766 23-207; P09693 23-182; P04234 22-171; P20963 22-164). As to the kind of experiment: flow cytometry, Jurkat T cells.
Chain of human CD3 (P07766 23-207, chain 1 of 4): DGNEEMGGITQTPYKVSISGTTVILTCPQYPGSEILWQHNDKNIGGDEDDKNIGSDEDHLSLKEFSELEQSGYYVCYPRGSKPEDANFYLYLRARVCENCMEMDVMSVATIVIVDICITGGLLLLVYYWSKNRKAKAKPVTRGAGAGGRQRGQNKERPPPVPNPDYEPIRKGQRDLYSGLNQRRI
Chain of human CD3 (P09693 23-182, chain 2 of 4): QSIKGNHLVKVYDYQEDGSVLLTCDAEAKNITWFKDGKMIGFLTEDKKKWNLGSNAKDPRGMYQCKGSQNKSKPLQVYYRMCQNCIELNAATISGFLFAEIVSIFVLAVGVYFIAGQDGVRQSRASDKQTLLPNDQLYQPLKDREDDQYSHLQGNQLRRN
Chain of human CD3 (P04234 22-171, chain 3 of 4): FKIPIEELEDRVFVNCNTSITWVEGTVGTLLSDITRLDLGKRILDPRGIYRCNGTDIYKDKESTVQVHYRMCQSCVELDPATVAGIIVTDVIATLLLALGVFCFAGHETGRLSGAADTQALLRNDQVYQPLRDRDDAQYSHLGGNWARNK
Chain of human CD3 (P20963 22-164, chain 4 of 4): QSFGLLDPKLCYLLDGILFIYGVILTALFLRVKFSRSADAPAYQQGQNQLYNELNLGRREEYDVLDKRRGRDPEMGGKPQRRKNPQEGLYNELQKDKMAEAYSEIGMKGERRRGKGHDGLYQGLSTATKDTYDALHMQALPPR
As for B1, it took 1.7 nM to reach a half-maximal effect (EC50). To B2 belongs 1.3 nM; to B3, 0.87 nM.
